Laboratory results published in the supplement of paper PMC5998384.

Columns and labels:
HeLa Kyoto [1] = test: solubility in G1/S (NP-40 vs SDS abundance) (log2 ratio); higher = more soluble; settings: cell cycle stage: G1/S
HeLa Kyoto [2] = test: melting temperature (median over replicates), in situ; higher = more thermally stable
HeLa Kyoto [3] = test: solubility change mitosis vs G1/S (difference of NP-40 vs SDS log2 ratios) (log2 ratio difference); higher = more soluble in mitosis
HeLa Kyoto [4] = test: thermal stability score vs G1/S (z-score of summed log2 fold changes over temperatures); higher = more thermally stable than in G1/S
[5] = cell cycle stage: early G1 (4.5 h after nocodazole release)
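Throughout, for melting temperature (median over replicates), in situ: HeLa Kyoto cells synchronized by double thymidine or nocodazole block, proteins quantified by TMT10plex mass spectrometry, three independent biological replicates.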
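Throughout, for solubility change mitosis vs G1/S (difference of NP-40 vs SDS log2 ratios): synchronized HeLa Kyoto cells (double thymidine block for G1/S, nocodazole release for mitosis), protein amounts in NP-40 versus SDS lysates quantified by mass spectrometry, three biological replicates.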
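Throughout, for solubility in G1/S (NP-40 vs SDS abundance): HeLa Kyoto cells arrested at G1/S by double thymidine block, proteins quantified by TMT10plex mass spectrometry in mild NP-40 versus SDS extracts, three biological replicates.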
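Throughout, for thermal stability score vs G1/S (z-score of summed log2 fold changes over temperatures): synchronized HeLa Kyoto cells, proteins quantified by TMT10plex mass spectrometry, three biological replicates, mitosis taken 0.5 h after nocodazole release, G1/S directly after double thymidine block.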

| Substance | solubility in G1/S (log2) (HeLa Kyoto [1]) | melting temperature (HeLa Kyoto [2]; cell cycle stage: G1/S) [°C] | melting temperature (HeLa Kyoto [2]; cell cycle stage: mitosis) [°C] | solubility change mitosis (log2) (HeLa Kyoto [3]) | thermal stability score (HeLa Kyoto [4]; [5]) | thermal stability score (HeLa Kyoto [4]; cell cycle stage: mitosis) |
| --- | --- | --- | --- | --- | --- | --- |
| MAARAGFQSVAPSGGAGASGGAGAAAALGPGGTPGPPVRMGPAPGQGLYRSPMPGAAYPRPGMLPGSRMTPQGPSMGPPGYGGNPSVRPGLAQSGMDQSRKRPAPQQIQQVQQQAVQNRNHNAKKKKMADKILPQRIRELVPESQAYMDLLAFERKLDQTIMRKRLDIQEALKRPIKQKRKLRIFISNTFNPAKSDAEDGEGTVASWELRVEGRLLEDSALSKYDATKQKRKFSSFFKSLVIELDKDLYGPDNHLVEWHRTATTQETDGFQVKRPGDVNVRCTVLLMLDYQPPQFKLDPRLARLLGIHTQTRPVIIQALWQYIKTHKLQDPHEREFVICDKYLQQIFESQRMKFSEIPQRLHALLMPPEPIIINHVISVDPNDQKKTACYDIDVEVDDTLKTQMNSFLLSTASQQEIATLDNKIHETIETINQLKTQREFMLSFARDPQGFINDWLQSQCRDLKTMTDVVGNPEEERRAEFYFQPWAQEAVCRYFYSKVQQRRQELEQALGIRNT [SMARCD1] | 0.347 | 47.4 | 49.3 | -0.0288 | 0.481 | 1.5 |
| TLN2 | -0.145 | 50.5 | 50.4 | 0.0273 | -0.491 | -0.643 |
| MFGAGDEDDTDFLSPSGGARLASLFGLDQAAAGHGNEFFQYTAPKQPKKGQGTAATGNQATPKTAPATMSTPTILVATAVHAYRYTNGQYVKQGKFGAAVLGNHTAREYRILLYISQQQPVTVARIHVNFELMVRPNNYSTFYDDQRQNWSIMFESEKAAVEFNKQVCIAKCNSTSSLDAVLSQDLIVADGPAVEVGDSLEVAYTGWLFQNHVLGQVFDSTANKDKLLRLKLGSGKVIKGWEDGMLGMKKGGKRLLIVPPACAVGSEGVIGWTQATDSILVFEVEVRRVKFARDSGSDGHSVSSRDSAAPSPIPGADNLSADPVVSPPTSIPFKSGEPALRTKSNSLSEQLAINTSPDAVKAKLISRMAKMGQPMLPILPPQLDSNDSEIEDVNTLQGGGQPVVTPSVQPSLHPAHPALPQMTSQAPQPSVTGLQAPSAALMQVSSLDSHSAVSGNAQSFQPYAGMQAYAYPQASAVTSQLQPVRPLYPAPLSQPPHFQGSGDMASFLMTEARQHNTEIRMAVSKVADKMDHLMTKVEELQKHSAGNSMLIPSMSVTMETSMIMSNIQRIIQENERLKQEILEKSNRIEEQNDKISELIERNQRYVEQSNLMMEKRNNSLQTATENTQARVLHAEQEKAKVTEELAAATAQVSHLQLKMTAHQKKETELQMQLTESLKETDLLRGQLTKVQAKLSELQETSEQAQSKFKSEKQNRKQLELKVTSLEEELTDLRVEKESLEKNLSERKKKSAQERSQAEEEIDEIRKSYQEELDKLRQLLKKTRVSTDQAAAEQLSLVQAELQTQWEAKCEHLLASAKDEHLQQYQEVCAQRDAYQQKLVQLQEKCLALQAQITALTKQNEQHIKELEKNKSQMSGVEAAASDPSEKVKKIMNQVFQSLRREFELEESYNGRTILGTIMNTIKMVTLQLLNQQEQEKEESSSEEEEEKAEERPRRPSQEQSASASSGQPQAPLNRERPESPMVPSEQVVEEAVPLPPQALTTSQDGHRRKGDSEAEALSEIKDGSLPPELSCIPSHRVLGPPTSIPPEPLGPVSMDSECEESLAASPMAAKPDNPSGKVCVREVAPDGPLQESSTRLSLTSDPEEGDPLALGPESPGEPQPPQLKKDDVTSSTGPHKELSSTEAGSTVAGAALRPSHHSQRSSLSGDEEDELFKGATLKALRPKAQPEEEDEDEVSMKGRPPPTPLFGDDDDDDDIDWLG [FKBP15] | 0.0656 | 49.6 | 50 | -0.0387 | -0.146 | 1.12 |
| MEAPAAGLFLLLLLGTWAPAPGSASSEAPPLINEDVKRTVDLSSHLAKVTAEVVLAHLGGGSTSRATSFLLALEPELEARLAHLGVQVKGEDEEENNLEVRETKIKGKSGRFFTVKLPVALDPGAKISVIVETVYTHVLHPYPTQITQSEKQFVVFEGNHYFYSPYPTKTQTMRVKLASRNVESYTKLGNPTRSEDLLDYGPFRDVPAYSQDTFKVHYENNSPFLTITSMTRVIEVSHWGNIAVEENVDLKHTGAVLKGPFSRYDYQRQPDSGISSIRSFKTILPAAAQDVYYRDEIGNVSTSHLLILDDSVEMEIRPRFPLFGGWKTHYIVGYNLPSYEYLYNLGDQYALKMRFVDHVFDEQVIDSLTVKIILPEGAKNIEIDSPYEISRAPDELHYTYLDTFGRPVIVAYKKNLVEQHIQDIVVHYTFNKVLMLQEPLLVVAAFYILFFTVIIYVRLDFSITKDPAAEARMKVACITEQVLTLVNKRIGLYRHFDETVNRYKQSRDISTLNSGKKSLETEHKALTSEIALLQSRLKTEGSDLCDRVSEMQKLDAQVKELVLKSAVEAERLVAGKLKKDTYIENEKLISGKRQELVTKIDHILDAL [RPN1] | 0.0559 | 53.2 | 53.6 | -0.0592 | 1.85 | 2.85 |
| MADLANEEKPAIAPPVFVFQKDKGQKSPAEQKNLSDSGEEPRGEAEAPHHGTGHPESAGEHALEPPAPAGASASTPPPPAPEAQLPPFPRELAGRSAGGSSPEGGEDSDREDGNYCPPVKRERTSSLTQFPPSQSEERSSGFRLKPPTLIHGQAPSAGLPSQKPKEQQRSVLRPAVLQAPQPKALSQTVPSSGTNGVSLPADCTGAVPAASPDTAAWRSPSEAADEVCALEEKEPQKNESSNASEEEACEKKDPATQQAFVFGQNLRDRVKLINESVDEADMENAGHPSADTPTATNYFLQYISSSLENSTNSADASSNKFVFGQNMSERVLSPPKLNEVSSDANRENAAAESGSESSSQEATPEKESLAESAAAYTKATARKCLLEKVEVITGEEAESNVLQMQCKLFVFDKTSQSWVERGRGLLRLNDMASTDDGTLQSRLVMRTQGSLRLILNTKLWAQMQIDKASEKSIRITAMDTEDQGVKVFLISASSKDTGQLYAALHHRILALRSRVEQEQEAKMPAPEPGAAPSNEEDDSDDDDVLAPSGATAAGAGDEGDGQTTGST [RANBP3] | 0.168 | 55.3 | 56.9 | -0.0529 | 2.19 | 1.81 |
| MAANMYRVGDYVYFENSSSNPYLIRRIEELNKTASGNVEAKVVCFYRRRDISNTLIMLADKHAKEIEEESETTVEADLTDKQKHQLKHRELFLSRQYESLPATHIRGKCSVALLNETESVLSYLDKEDTFFYSLVYDPSLKTLLADKGEIRVGPRYQADIPEMLLEGESDEREQSKLEVKVWDPNSPLTDRQIDQFLVVARAVGTFARALDCSSSVRQPSLHMSAAAASRDITLFHAMDTLYRHSYDLSSAISVLVPLGGPVLCRDEMEEWSASEASLFEEALEKYGKDFNDIRQDFLPWKSLTSIIEYYYMWKTTDRYVQQKRLKAAEAESKLKQVYIPTYSKPNPNQISTSNGKPGAVNGAVGTTFQPQNPLLGRACESCYATQSHQWYSWGPPNMQCRLCAICWLYWKKYGGLKMPTQSEEEKLSPSPTTEDPRVRSHVSRQAMQGMPVRNTGSPKSAVKTRQAFFLHTTYFTKFARQVCKNTLRLRQAARRPFVAINYAAIRAEYADRHAELSGSPLKSKSTRKPLACIIGYLEIHPAKKPNVIRSTPSLQTPTTKRMLTTPNHTSLSILGKRNYSHHNGLDELTCCVSD [MTA3] | -0.0389 | 49.3 | 49.7 | -0.00121 | 0.944 | 4.09 |
